Reference: patent publication US5935811

Target: T1, NRSF/REST (lambda-HZ4 partial) (Homo sapiens) (UniProt Q13127)
T1 sequence: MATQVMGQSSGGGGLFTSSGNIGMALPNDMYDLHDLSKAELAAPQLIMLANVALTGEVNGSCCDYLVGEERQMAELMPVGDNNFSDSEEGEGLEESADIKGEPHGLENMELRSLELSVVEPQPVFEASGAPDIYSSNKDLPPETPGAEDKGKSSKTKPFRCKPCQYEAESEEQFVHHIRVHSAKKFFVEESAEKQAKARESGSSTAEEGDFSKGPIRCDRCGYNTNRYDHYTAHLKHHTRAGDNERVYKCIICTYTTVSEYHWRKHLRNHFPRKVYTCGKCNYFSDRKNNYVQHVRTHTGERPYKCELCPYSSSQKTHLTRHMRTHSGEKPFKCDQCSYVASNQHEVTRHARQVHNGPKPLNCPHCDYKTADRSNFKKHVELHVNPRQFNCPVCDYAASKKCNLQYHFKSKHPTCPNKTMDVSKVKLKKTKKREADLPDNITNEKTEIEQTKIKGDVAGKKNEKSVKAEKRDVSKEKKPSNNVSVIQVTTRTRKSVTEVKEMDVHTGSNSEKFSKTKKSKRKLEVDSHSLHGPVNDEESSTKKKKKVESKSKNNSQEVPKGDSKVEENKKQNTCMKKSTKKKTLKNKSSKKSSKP
Assay: cell_activity
Conditions: pCAT3 reporter, maximum pCMV-HZ4, PC12 cells

**Q.** How did the activity (fold repression) turn out when “pCAT3 SCG10 proximal promoter without NRSE” was run?
**A.** 1.5
